This note sets out measurements from patent publication US20090087478A1 (PROGENICS PHARMACEUTICALS NEVADA, published 2009).

Assay [1] has as its target T1, ToxB:1807-2366 (CWB domain of C. difficile toxin B, expressed in E. coli) (Clostridium difficile, UniProt P18177 1807-2366).
T1 construct: range 1807-2366
Kind of assay: SPR, toxin domain immobilised, apparent Kd. In general terms: Surface plasmon resonance follows binding to a sensor surface in real time, without labels.

Assay [2] concerns the target T2, ToxA:2459-2710 (C-terminal eleven repeats of the toxin A CWB domain) (Clostridium difficile, UniProt P16154 2459-2710).
Assay [3] addresses T2, ToxA:2459-2710 (C-terminal eleven …). Put plainly: SPR, apparent KD.

Like-named read-outs stand apart in the source and are kept apart here.

B1: Antibody F87, murine monoclonal anti-toxin B antibody (antibody, V domains shown)
VH: QVQLQQPGTELVKPGASVKLSCKASGYTFTNYWMHWVKQRPGQGLEWVGNINPSNGGTNYNEKFKSKATLTVDKSSSTAYMQLSSLTSEDSAFYYCARGRGPPYYSDYWGQGSTLTVSS
VL: NIQMTQSPASLSASVGETVTITCRASGNIHNYLAWYQQKQGKSPQLLVYNAKTLADGVPSRFSGSGSGTQYSLKINSLQPEDFGSYYCQHFWSTPFTFGSGTKLEIK
For B1, the Kd in assay [1] came to 0.05 nM.

B2: Antibody 227 (or 3359), murine monoclonal anti-toxin A antibody (antibody, V domains shown)
VH: EVQLVESGGGLMKPGGSLKLSCAASGFAFGSYDMSWVRQTPEKRLEWVAYISSGGGITFYPDSVRGRFTISRDNAKNSLYMEMSSLRSEDTAMYYCARWDWDLFAYWGQGTLVTVSA
VL: DIKMTQSPSSMYTSLGERVTITCKASQDINSCLSWFQQKPGKSPKALIFRANILVDGVPSRFSGSGSGQDYSLTISSLEYEDLGIYYCLQYDEFPWTFGGGTRLEIK
In assay [2], B2 came in with a Kd of 12 nM.

B3: Antibody 3358 (or 543), murine monoclonal anti-toxin A antibody (antibody, V domains shown)
VH: QVQLQQPGAELVKPGASVRLSCKAGGYTFTSYWLHWVKQRPGQGLEWIGMIHPNSGSYDYSETFRTKATLTVDKSSDTAYMQLTSLTSEDSAVYYCARGGSNYDIFAYWGQGTTLTVSS
VL: NIVMTQSPKSMSMSVGERVTFNCRASENVGTYVFWYQQKPEQSPRLLIYGASNRYTGVPDRFTGSGSATDFTLTISGVQAEDLADYHCGQSYRHLTFGGGTKLEIK
B3: the Kd in assay [3] was less than 30 nM; in assay [2], 0.7 nM.

B4: rPBA-3, chimeric recombinant form of anti-toxin A monoclonal antibody PBA-3 (wildtype, plasmids BD12584 heavy and BD12585 light) (antibody, V domains shown)
VH: QVQLQQSGPELVKPGASVRISCKASGFTFTSYHVNWVKQRPGQGLEWIGWIYPGNVNTEYNEKFKGKATLTADKSSSTAYMQLSSLTSEDSAVYFCASHEYYGSDWYFDVWGAGTTVTVSS
VL: DAVMTQTPLSLPVSLGDQASISCRSSQSLENRNGNTYLNWYLQKPGQSPQLLIYRVSNRFSGVLDRFSGSGSGTDFTLKISRVEAEDLGVYFCLQVTHVPYTFGGGTKLEIK
For B4, the Kd in assay [2] came out at 60 nM.
